PMC5585873

B1: Bds1 (Saccharomyces cerevisiae S288C) (protein)
chain: MIGAFKRNRGSSQSFAKECQPSTLKANLEVAKELPFSDRRDFEDATQGYIGSLSDEQIIGPDGGVVWCMKSYGFLEPETPANTVNPSLWRQAQLNAIHGLFKITDNVYQVRGLDISNMTIIEGNTSLIIIDTLFTTETAQESLKLYYRHRPQKPVRTVIYTHSHSDHYGGVKGIVKEADVKSGEVQIIAPVGFMESVVAENILAGNAMHRRSQYQFGMLLSPSVKGHVDCGIGKAASHGTVTLIAPTIIIEEPVEERTIDGVDFVFQLAPGSEAPSEMLIYMPQQRVLNMAEDVTHHMHNLYALRGVEVRDGNQWAKYIDAARVAFGSKTDVLIAQHHWPTTGQMRINELLKKQRDMYKFIHDQTLRLLNQGYTSRDIAETLRMPSSLEQEWSTRGYYGTLSHNVKAVYQKYLGWYDANPANLNPLPPVAYAKKAVEYMGGADAVLARAYKDFQKGEFRWVASVVNQLVFADPNNHQARELCADALEQLGYQAEASTWRNAYLVGAMELRQGVPKRRSTGKRNNIAVLNNEMFFDFLAVRLNATKAEGKIIVSNWCFINSNERFVITLENCALTYIQGWQTDADATITLKRTTFEALLANEITMVDFLRSKEVEIEGNRLRIEELLKLFDDFDQSFPVVEPMGGST

Assays:
CCCCCCOS(=O)(=O)O = experiment: purified protein; details: 10 mM tris-HCl, pH 7.4, 25 °C, 0.16 μM enzyme
[1] = substrate: CCCCCCOS(=O)(=O)O; experiment: LC-MS of substrate depletion, hyperbolic fit; type: biochemical, Saccharomyces cerevisiae; details: 10 mM tris-HCl, pH 7.4, 25 °C, 1.0 μM enzyme

Molecule | Km (CCCCCCOS(=O)(=O)O) [µM] | kcat (CCCCCCOS(=O)(=O)O) [s⁻¹] | Km [1] [µM] | kcat [1] [s⁻¹]
SdsA1 (Pseudomonas aeruginosa PAO1) | 110 ± 17 | 1.07 ± 0.45 |  | 
B1 |  |  | 300 ± 115 | 0.0067 ± 0.0017
